Measured values reported in the supplement of paper PMC9170038.

Test system: MS2 coat protein
Experiment: apparent KD of MS2 coat protein; higher = weaker reporter binding
Conditions: Eterna round: R107
Method in brief: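 Designed RNA switches were transcribed on-chip from Illumina sequencing clusters. SNAP-549-labelled MS2 coat protein was titrated onto them in twofold steps from 0.7 or 1.5 nM to 3 µM in 100 mM Tris-HCl pH 7.5, 80 mM KCl, 4 mM MgCl2, either without or with constant ligand. Apparent KD reflects the per-design median of normalised cluster binding-curve fits.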

[1] = input ligand: theophylline 20 uM
[2] = input ligand: tryptophan 2.4 mM
[3] = input ligand: theophylline 2 mM

| Sequence | apparent KD of MS2 coat protein (input ligand: arginine 13.2 mM) | apparent KD of MS2 coat protein [1] | apparent KD of MS2 coat protein [2] | apparent KD of MS2 coat protein [3] | apparent KD of MS2 coat protein (input ligand: none) |
| --- | --- | --- | --- | --- | --- |
| ACGAACGAUAGUGAUACCAGACGUACAUGAGGAUCACCCAUGUUAUACACAUGGUUUAUUGUCCCUUGGCAGCACGUUAAGUUCG [JR_ExcTheophyB_Sub005] | 98.5 nM | 274 nM | 289 nM | – | – |
| UUUGGCGGCGAUCUGGGUUUACCAGAUCGGCGAGGACCGGUACGGCCGCCACUCGUGUUUCUUUGACAUGAGGAUCACCCAUGUA [whbob_SS_trypto A_f3] | 34.9 nM | 74.6 nM | – | 102 nM | – |
| AAAUAUAACUCGGCCGCCACUGACAUGAGGAUCACCCAUGUUAUAUUUUAUACAUGAGGAUCACCCAGGACCGGGAGAAUAUAAA [Jonah 1] | 61.7 nM | 484 nM | 1590 nM | 696 nM | 940 nM |
| AGAGCAUUGACGGCCGCCACUCGUGUCACAUGAGGAUCACCCAUGUGACGGGUGAUCGCCCGGUUGAGGACCGGGUCAAUGCUCA [Omei Tryp SS B v8] | 10.4 nM | 13 nM | – | 11.2 nM | – |
| GGGCAAGAGGGAAGGAGCGUUAGCUGAGUCACAUGAGGAUCACCCAUGUCGCACGUAGUAUGACAGGUAGGUCGCCCUCUACCCU [SS-ArgB15] | 18 nM | 22.1 nM | 18.9 nM | 21.6 nM | 18.1 nM |
| AUACAUGAGGAUCACCCAUGUUACACUGAAGGAGCGACAUGUUUGUCAGGUAGGUCGCAGUGAAGUUUAAUAAAUAGUUGAUCUU [#07 Same State - Arginine A] | 37.6 nM | 56.8 nM | 37 nM | 62.6 nM | 57 nM |
| AUAACAUGAGGAUCACCCAUGUAAGCUGAAGGAGCGGACGAAAGUCCAGGUAGGUCGCAGCGCUCCUUCUGGUGAUCUGAAGGAG [(M1)-(M2)-(Arg1)-(Arg2)-(A)'-(M)'-(A)''_Design3] | 103 nM | 154 nM | 138 nM | 87.8 nM | 151 nM |
| UUUUAAUGUGCGGAUACCAGCCGUACAUGAGGAUCACCCAUGUCGCUGUUGAGCAUCGUCGGCCCUUGGCAGCUGUGUGUAGUUG [#27 Same State - Theophylline B] | 26.2 nM | 62.7 nM | 42.3 nM | 66 nM | 51.9 nM |
| AUGUCGUUGAAUAUAGCGGCUUGGAGUGAUACCAGCAUGAUCCAAUGCCCUUGGCAGCAUAACAUGAGGAUCACCCAUGUUCCAG [SSTheo A #26] | 32.7 nM | 68.7 nM | 30.1 nM | – | – |
| GCUGUACCAUGAAGGAGCGUCGUUGAUUGAGAAUACACAUGAGGAUCACCCAUGUUUUUAUGACAGGUAGGUCGCAUGGUACAGC [SSAB #16] | 13.8 nM | 25.1 nM | 12.1 nM | 18.9 nM | 12.9 nM |
| UGUAUGUGAUCUGAUACCAGCUAAUAAGCUUGAGGAUCACCCAAGUGGAGCGGAAACGCAGGCCCUUGGCAGCAGAUCGCAUACU [Denovo 9 #StaticStem #AlternativeMS2] | 54.6 nM | 34.4 nM | 70.7 nM | 11.7 nM | 76.4 nM |
| GGACCAUGGAGCGAUACCAGCUUGAGUGUACUGGCCAGGUACAUGAGGAUCACCCAUGUAAGCCCUUGGCAGCGCUCCAUGGUCC [#1 Exclusion - Theophylline B Attempt #25 (HarryS)] | 8.38 nM | 14.7 nM | 12.3 nM | 30.8 nM | 9.95 nM |
| ACCGCAUCCGUAUAGGAUGCGGGCCAUGAAGGAGCGUGGGAAACCACAGGUAGGUCGCAUGGGUUACAUGAGGAUCACCCAUGUG [Jaws] | 26.4 nM | 517 nM | 534 nM | 585 nM | 166 nM |
| ACAUGAGGAUCACCCAUGUAUUACCGGGAAGGAGCGCGUAAGGACGCAGGUAGGUCGCUCGGCGUCCGGCCGCAAGGCUGGACGA [#1 Same State - Arginine A Attempt #17 (HarryS)] | 12.3 nM | 18.1 nM | 15.2 nM | 16.4 nM | 16.3 nM |
| CUAAUUAUAUCGGCCGCCACUUACUCAUGAGGUAACAACAUGAGGAUCACCCAUGUUUGAGGAUCAAGGACCGGGAUAUAAUUAG [AstrosSSTry#24] | 30.5 nM | 33 nM | – | 34.9 nM | – |
| AAUAAUAGGUGAUCUUAAGUCGUACCGUAACGAGGACCGGUACGGCCGCCACUCGAACAUGAGGAUCACCCAUGUAUGUAUGAUA [whbob_SS_trypto A_f5] | 44.7 nM | 242 nM | 80.7 nM | 300 nM | 168 nM |
